Target: T1, HER2-ECD-His protein (human, UniProt P04626 23-652)
T1 construct: extracellular domain; not shown: His tag
Test: SPR (Biacore 3000), HER2-ECD-His amine-coupled to CM5, periplasmic extract as analyte
Method: In order to select clones with improved Koff among the selected clones, the clones were analyzed via Biacore 3000 (GE Healthcare). The HER2-ECD-His protein was immobilized to a CM5 sensor chip via an amine coupling method using ECD/NHS. […] The Koff value for each antibody was analyzed via BIAevaluation software.

Row | Binder | Degree of reduction (Fold) of koff against hz1E11 [fold]
1 | M1-L-A1-3-1C3 (hz1E11-3), periplasmic extract (antibody, V domains shown, Library clone expressed in bacteria with IPTG, tested as periplasmic extract; LCDR3 DQMYSTPWT) VH: EVQLVESGGGLVQPGGSLRLSCAASGFTFSSYTMSWVRQAPGKGLEWVAYISNGGGSTYYPDTVKGRFTISRDNAKNSLYLQMNSLRAEDTAVYYCARHLGGTASFDYWGQGTLVTVSS VL: DIQMTQSPSSLSASVGDRVTITCLASQTIGTWLAWYQQKPGKAPKLLIYVATSLADGVPSRFSGSGSGTDFTLTISSLQPEDFATYYCDQMYSTPWTFGQGTKVEIK | 7.4
2 | M3-LH-A1-1-1H1 (antibody, name in Kabat numbering, V domains shown, hz1E11 library clone, periplasmic extract) VH: EVQLVESGGGLVQPGGSLRLSCAASGFTFSSYTMSWVRQAPGKGLEWVAYISNGGGSTYYPDTVKGRFTISRDNAKNSLYLQMNSLRAEDTAVYYCARNYGGTASFDYWGQGTLVTVSS VL: DIQMTQSPSSLSASVGDRVTITCLASQTIGTWLAWYQQKPGKAPKLLIYVATSLADGVPSRFSGSGSGTDFTLTISSLQPEDFATYYCQQNFIAPWTFGQGTKVEIK | 0.7
3 | M3-L-A1-3-1A12 (hz1E11-133), periplasmic extract (antibody, V domains shown, Library clone expressed in bacteria with IPTG, tested as periplasmic extract; LCDR3 QQNAYAPWT) VH: EVQLVESGGGLVQPGGSLRLSCAASGFTFSSYTMSWVRQAPGKGLEWVAYISNGGGSTYYPDTVKGRFTISRDNAKNSLYLQMNSLRAEDTAVYYCARHLGGTASFDYWGQGTLVTVSS VL: DIQMTQSPSSLSASVGDRVTITCLASQTIGTWLAWYQQKPGKAPKLLIYVATSLADGVPSRFSGSGSGTDFTLTISSLQPEDFATYYCQQNAYAPWTFGQGTKVEIK | 30.4
4 | M1-LH-A3-3-1A6 (antibody, name in Kabat numbering, V domains shown, hz1E11 library clone, periplasmic extract) VH: EVQLVESGGGLVQPGGSLRLSCAASGFTFSSYTMSWVRQAPGKGLEWVAYISNGGGSTYYPDTVKGRFTISRDNAKNSLYLQMNSLRAEDTAVYYCARNYGGTASFDYWGQGTLVTVSS VL: DIQMTQSPSSLSASVGDRVTITCLASQTIGTWLAWYQQKPGKAPKLLIYVATSLADGVPSRFSGSGSGTDFTLTISSLQPEDFATYYCQQLVRTPWTFGQGTKVEIK | 5.8
5 | M3-L-A3-4-2E8 (antibody, V domains shown, hz1E11 library clone, periplasmic extract) VH: EVQLVESGGGLVQPGGSLRLSCAASGFTFSSYTMSWVRQAPGKGLEWVAYISNGGGSTYYPDTVKGRFTISRDNAKNSLYLQMNSLRAEDTAVYYCARHLGGTASFDYWGQGTLVTVSS VL: DIQMTQSPSSLSASVGDRVTITCLASQTIGTWLAWYQQKPGKAPKLLIYVATSLADGVPSRFSGSGSGTDFTLTISSLQPEDFATYYCQQIAYVPWTFGQGTKVEIK | 5.9
6 | M3-LH-A3-3-2A5 (antibody, name in Kabat numbering, V domains shown, hz1E11 library clone, periplasmic extract) VH: EVQLVESGGGLVQPGGSLRLSCAASGFTFSSYTMSWVRQAPGKGLEWVAYISNGGGSTYYPDTVKGRFTISRDNAKNSLYLQMNSLRAEDTAVYYCARHWGGTASFDYWGQGTLVTVSS VL: DIQMTQSPSSLSASVGDRVTITCLASQTIGTWLAWYQQKPGKAPKLLIYVATSLADGVPSRFSGSGSGTDFTLTISSLQPEDFATYYCQQMFSTPWTFGQGTKVEIK | 3.6
7 | M3-LH-A3-3-2F1 (antibody, V domains shown, hz1E11 library clone, periplasmic extract) VH: EVQLVESGGGLVQPGGSLRLSCAASGFTFSSYTMSWVRQAPGKGLEWVAYISNGGGSTYYPDTVKGRFTISRDNAKNSLYLQMNSLRAEDTAVYYCARHLGGTASFDYWGQGTLVTVSS VL: DIQMTQSPSSLSASVGDRVTITCLASQTIGTWLAWYQQKPGKAPKLLIYVATSLADGVPSRFSGSGSGTDFTLTISSLQPEDFATYYCQQNAYNPWTFGQGTKVEIK | 4.4
8 | M3-L-A1-3-1F11 (hz1E11-154), periplasmic extract (antibody, V domains shown, Library clone expressed in bacteria with IPTG, tested as periplasmic extract; LCDR3 QQTAFSPWT) VH: EVQLVESGGGLVQPGGSLRLSCAASGFTFSSYTMSWVRQAPGKGLEWVAYISNGGGSTYYPDTVKGRFTISRDNAKNSLYLQMNSLRAEDTAVYYCARHLGGTASFDYWGQGTLVTVSS VL: DIQMTQSPSSLSASVGDRVTITCLASQTIGTWLAWYQQKPGKAPKLLIYVATSLADGVPSRFSGSGSGTDFTLTISSLQPEDFATYYCQQTAFSPWTFGQGTKVEIK | 9.7
9 | M3-LH-A1-2-2F4 (antibody, name in Kabat numbering, V domains shown, hz1E11 library clone, periplasmic extract) VH: EVQLVESGGGLVQPGGSLRLSCAASGFTFSSYTMSWVRQAPGKGLEWVAYISNGGGSTYYPDTVKGRFTISRDNAKNSLYLQMNSLRAEDTAVYYCARNLGGTASFDYWGQGTLVTVSS VL: DIQMTQSPSSLSASVGDRVTITCLASQTIGTWLAWYQQKPGKAPKLLIYVATSLADGVPSRFSGSGSGTDFTLTISSLQPEDFATYYCQQLVRIPWTFGQGTKVEIK | 3.2
10 | M3-L-A1-3-2C2 (antibody, V domains shown, hz1E11 library clone, periplasmic extract) VH: EVQLVESGGGLVQPGGSLRLSCAASGFTFSSYTMSWVRQAPGKGLEWVAYISNGGGSTYYPDTVKGRFTISRDNAKNSLYLQMNSLRAEDTAVYYCARHLGGTASFDYWGQGTLVTVSS VL: DIQMTQSPSSLSASVGDRVTITCLASQTIGTWLAWYQQKPGKAPKLLIYVATSLADGVPSRFSGSGSGTDFTLTISSLQPEDFATYYCQQLGFIPWTFGQGTKVEIK | 2

Source: patent US20160053011A1 (ABCLON, published 2016)
